Consider 1 molecule from patent publication CN114835808A (dated 2022).

The assay deals with T1, 重组cTnI抗原 (UniProt P19429 1-210, limits assumed).
T1 construct: Both are treated here as the same coating of the same experiment
The assay is described as follows: indirect ELISA, recombinant cTnI coated, enzyme-labelled secondary antibody. A general note: ELISA stands for enzyme-linked immunosorbent assay.

T1 sequence (P19429 whole entry): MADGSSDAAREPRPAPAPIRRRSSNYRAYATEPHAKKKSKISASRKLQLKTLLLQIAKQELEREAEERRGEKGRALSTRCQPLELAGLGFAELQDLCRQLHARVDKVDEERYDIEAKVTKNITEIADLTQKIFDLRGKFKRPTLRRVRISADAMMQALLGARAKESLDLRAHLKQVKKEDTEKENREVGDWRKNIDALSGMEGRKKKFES

B1: cTnI抗体突变4 (antibody, V domains shown)
VH: EVQLVESGGDLVTPGGSLKLSCTASGFTFSNYAMSWVRQTPEKRLEWVATISSGGTYTFYPDSVKGRFTISRDNAKNTLYLQMSSLRSEDTAIYYCTAAGAFDGEKALDYWGQGTSVTVSS
VL: DIQMNQSTSSLSASLGDRVTISCRASQDISSYLNWYQQRADGTIKLLIYFTSRLHSGVPSRFSGSGSGTDYSLTISNLEQEDIATYFCQQGNTVAATFGGGTRLEIK
notes: Mutant of a mouse anti-cTnI monoclonal antibody, made recombinantly by transient expression and purified on SPA; also called 突变抗体4
For B1, the binding result is given as “no binding (tested: 检测值小于0.05基本可判定无活性 (阴性对照0.047左右))”.
